This is an account of results in patent publication US20250369982A1 (INCENDIATHERAPEUTICS, published 2025).

The Kd is the constant that tells how readily two partners part at equilibrium. The low end stands for a tighter complex, the high end for a looser complex. Broadly, the koff is a measure of how fast the partners let go of each other. By kon is commonly meant the rate constant with which the complex forms. Lower therefore signals slow association.

In assay [1] the target is T1, DDR1 on T47D breast cancer cells (human, UniProt Q08345 19-913). The assay can be described thus: cell-based or functional assay.
T1 sequence (Q08345 19-913 limits assumed, stated change not applied): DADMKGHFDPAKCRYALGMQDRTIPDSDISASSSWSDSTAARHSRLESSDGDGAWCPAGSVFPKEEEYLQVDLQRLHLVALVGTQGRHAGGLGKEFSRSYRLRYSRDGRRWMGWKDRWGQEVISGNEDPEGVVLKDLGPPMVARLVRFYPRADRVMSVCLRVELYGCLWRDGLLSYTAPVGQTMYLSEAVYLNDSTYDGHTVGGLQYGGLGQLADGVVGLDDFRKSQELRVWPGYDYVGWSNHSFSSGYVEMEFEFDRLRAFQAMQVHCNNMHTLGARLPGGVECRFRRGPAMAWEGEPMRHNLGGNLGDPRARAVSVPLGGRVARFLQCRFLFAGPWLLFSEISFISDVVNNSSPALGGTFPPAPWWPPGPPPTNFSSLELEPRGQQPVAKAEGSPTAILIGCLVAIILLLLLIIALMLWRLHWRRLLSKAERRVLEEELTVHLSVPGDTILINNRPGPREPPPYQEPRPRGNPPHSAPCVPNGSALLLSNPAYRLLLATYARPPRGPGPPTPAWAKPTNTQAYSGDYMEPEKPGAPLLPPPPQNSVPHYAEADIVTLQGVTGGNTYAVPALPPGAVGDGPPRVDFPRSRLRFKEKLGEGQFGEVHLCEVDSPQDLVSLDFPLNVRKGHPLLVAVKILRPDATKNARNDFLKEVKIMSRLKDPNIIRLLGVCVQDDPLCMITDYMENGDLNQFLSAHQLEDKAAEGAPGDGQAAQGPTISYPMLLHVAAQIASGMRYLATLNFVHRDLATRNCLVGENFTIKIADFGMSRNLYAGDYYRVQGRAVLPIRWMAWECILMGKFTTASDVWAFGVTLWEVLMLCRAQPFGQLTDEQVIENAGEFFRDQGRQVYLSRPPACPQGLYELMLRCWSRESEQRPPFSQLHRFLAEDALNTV
For assay [2], the target named is T1, DDR1 on T47D breast cancer cells. Description: cell-based or functional assay. This is another data set of the same source.
The target in assay [3] is DDR1 overexpressed on HEK293 cells (Homo sapiens (Human), UniProt Q08345 19-913). Description: cell-based or functional assay.
Sequence of DDR1 overexpressed on HEK293 cells (Q08345 19-913 limits assumed): as the sequence (Q08345 19-913 limits assumed, stated change not applied) above
Assay [4] addresses T1, DDR1 on T47D breast cancer cells. Description: cell-based or functional assay. The source holds these as a separate data set.
Assay [5] has as its target T2, mouse DDR1 extracellular domain (mouse, UniProt Q03146 22-415).
T2 construct: extracellular domain
T2 sequence (looked up): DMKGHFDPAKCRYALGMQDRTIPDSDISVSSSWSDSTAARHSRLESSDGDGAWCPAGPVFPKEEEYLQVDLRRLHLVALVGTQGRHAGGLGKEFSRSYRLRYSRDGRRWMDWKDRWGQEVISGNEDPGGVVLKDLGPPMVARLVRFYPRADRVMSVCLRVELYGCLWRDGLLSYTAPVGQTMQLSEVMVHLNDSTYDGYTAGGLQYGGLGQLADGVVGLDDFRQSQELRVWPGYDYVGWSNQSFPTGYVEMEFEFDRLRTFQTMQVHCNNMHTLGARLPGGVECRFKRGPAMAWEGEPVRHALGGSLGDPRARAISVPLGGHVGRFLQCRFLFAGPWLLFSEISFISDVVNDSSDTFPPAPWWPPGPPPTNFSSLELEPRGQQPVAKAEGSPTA
The assay can be described thus: SPR. On the technique in general: In SPR one partner is held on a chip, and binding of the other changes the refractive index at the surface.

Read-outs that look alike come from different tables or passages of the source.

B1: mAb #9H1 WT IgG1 Fc (antibody)
heavy: not shown
light: DIQMTQSPSSVSASVGDRVTITCQASQSIGSVLAWYQQKPGKAPKLLISGVFDLASGVPSRFSGSGSGTDFTLTISSLQPEDFATYYCQYIPYGSSPFGGGTKVEIKRTVAAPSVFIFPPSDEQLKSGTASVVCLLNNFYPREAKVQWKVDNALQSGNSQESVTEQDSKDSTYSLSSTLTLSKADYEKHKVYACEVTHQGLSSPVTKSFNRGEC
notes: also called humanized mAb #9H1 with wt IgG1Fc
In the case of B1, the “IC50, inhibition of human collagen I (50 µg/ml)-induced DDR1 phosphorylation in T47D cells (pDDR1 normalised with vinculin), single experiment; unit taken from the axis [9H1] (µg/ml)” value in assay [1] was 0.09 µg/ml; in assay [2] it was 0.05 µg/ml. Also, the “IC50 for 9H1-WT inhibition of DDR1 OE cell adhesion to collagen I-coated plates” value in assay [3] is roughly 0.065 µg/mL. For the same molecule, in assay [4], the “IC50 for inhibiting Collagen I-induced phosphorylation of DDR1 in T47D cells” value is 0.05 to 0.06 µg/mL. Besides, the dissociation constant (Kd) in assay [5] stood at 17.6 nM.

B2: mAb #9H1 inert IgG1 Fc (antibody)
heavy: QVQLVESGGRVVQPGRSLRLSCTASGFSLNRYYMLWVRQAPGKGLEWIGTISYGDTTYYASWAKGRFTISRDNSKNTLYLQMNSLRAEDTAVYYCARADTGDNGYLGLQLWGQGTLVTVSSASTKGPSVFPLAPSSKSTSGGTAALGCLVKDYFPEPVTVSWNSGALTSGVHTFPAVLQSSGLYSLSSVVTVPSSSLGTQTYICNVNHKPSNTKVDKRVEPKSCDKTHTCPPCPAPEAEGAPSVFLFPPKPKDTLMISRTPEVTCVVVDVSHEDPEVKFNWYVDGVEVHNAKTKPREEQYNSTYRVVSVLTVLHQDWLNGKEYKCKVSNKALPSSIEKTISKAKGQPREPQVYTLPPSREEMTKNQVSLTCLVKGFYPSDIAVEWESNGQPENNYKTTPPVLDSDGSFFLYSKLTVDKSRWQQGNVFSCSVMHEALHNHYTQKSLSLSPGK
light: B1 light
notes: No sentence equates the two names; also called humanized mAb #9H1 with inert IgG1Fc; humanized DDR1-9 1 inert IgG1 Fc
For the molecule B2, the Kd in assay [5] is 19 nM.

B3: mAb #33 inert IgG1 Fc (antibody, V domains shown)
VH: QSVEESGGRLVTPGGSLTLTCTVSGFSLSSYDMSWVRQAPGKGLEWIGISWNSGFVDYASWAKGRFSISKTSTTVDLKITSPTTEDTATYFCARLGADDIYYFNLWGPGTLVTISS
VL: ELVMTQTPASVEAAVGGTVTIKCQASETISSRLAWYQQKPGQPPKLLIYQASKLPSGVPSRFKGTGSGTEYTLTISDLECADAATYYCQGCYYGGGSFYDSAFGGGTEVVVKR
notes: also called chimeric rabbit/human mAb #33 with inert IgG1 Fc; chimeric mAb #33
In assay [5], B3 yielded a Kd of 1.01 nM, an off-rate constant (koff) of 0.00106 s⁻¹ and a kon of 1.05e+06 M⁻¹ s⁻¹.
